Measurements reported in the supplement of paper PMC7125110.
± gives the standard error. This sample holds only a part of the variants without activity.

B1: glmS ribozyme (parent)
chain: AUAAAAGCGCCAGAACUACAGAAAUGUAGUUGACGAGGAGGAGGUUUAUCGAAUUUUCGGCGGAUGCCUCCAAA

Variants of: B1
Test: self-cleavage kobs at 2500 uM GlcN6P; higher = faster cleavage; RNA array
Conditions: with glucosamine-6-phosphate
In short: (§1)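 Glucosamine-6-phosphate (40 μM to 10 mM) in HEPES/KCl/Mg(OAc)2 buffer was flowed over sequenced MiSeq chips, and tiles were imaged over ~14 h. Barcoded ribozyme variants there had been transcribed in situ by E. coli RNA polymerase and were tracked through a hybridised Cy3 probe at 37 °C. One- or two-exponential decay fits to per-tile medians, normalised to baseline and to non-cleaving reference variants, gave kobs. kcat and KM came from weighted Michaelis–Menten fits across concentrations.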
C8G A14U A39G was tested, and the “self-cleavage kobs at 2500 uM GlcN6P” value was under 1e-05 s⁻¹. In the case of G37C G38U G51A U54G, the “self-cleavage kobs at 2500 uM GlcN6P” value is reported as under 1e-05 s⁻¹. For A12G U54A C68G, the “self-cleavage kobs at 2500 uM GlcN6P” value was 5.86e-05 ± 1e-05 s⁻¹. For A36C U49G G63C, the “self-cleavage kobs at 2500 uM GlcN6P” value was under 1e-05 s⁻¹. A48C A52G C58U was tested, and the “self-cleavage kobs at 2500 uM GlcN6P” value was under 1e-05 s⁻¹. G40U G43U C50G was tested, and the “self-cleavage kobs at 2500 uM GlcN6P” value was under 1e-05 s⁻¹. With U47A A53U U65A the “self-cleavage kobs at 2500 uM GlcN6P” value was 0.00126 ± 0.00036 s⁻¹. With A6U C50G U55G A64G C67U the “self-cleavage kobs at 2500 uM GlcN6P” value was 0.000132 ± 3.6e-05 s⁻¹. With G13C G41A G62C the “self-cleavage kobs at 2500 uM GlcN6P” value was under 1e-05 s⁻¹. In the case of C11U G44U C67G, the “self-cleavage kobs at 2500 uM GlcN6P” value is reported as 0.00425 ± 0.0019 s⁻¹. For C61U U65A C67U C70A, the “self-cleavage kobs at 2500 uM GlcN6P” value was 5.06e-05 ± 2.1e-05 s⁻¹. In the case of A33C G51A A53U, the “self-cleavage kobs at 2500 uM GlcN6P” value is reported as under 1e-05 s⁻¹. For U49A U54G, the “self-cleavage kobs at 2500 uM GlcN6P” value was 4.22e-05 ± 1.9e-05 s⁻¹. G29U U45C U46G was tested, and the “self-cleavage kobs at 2500 uM GlcN6P” value was 6.29e-05 ± 2.8e-05 s⁻¹. For U47G C50A A64C, the “self-cleavage kobs at 2500 uM GlcN6P” value was 0.000126 ± 3.2e-05 s⁻¹. For G9A U30A, the “self-cleavage kobs at 2500 uM GlcN6P” value was under 1e-05 s⁻¹. A33G A53U G60U C71G was tested, and the “self-cleavage kobs at 2500 uM GlcN6P” value was under 1e-05 s⁻¹. In the case of C16A C34A C70U, the “self-cleavage kobs at 2500 uM GlcN6P” value is reported as under 1e-05 s⁻¹. In the case of A14C U56C C67U, the “self-cleavage kobs at 2500 uM GlcN6P” value is reported as under 1e-05 s⁻¹. With G29A G41U C68U the “self-cleavage kobs at 2500 uM GlcN6P” value was under 1e-05 s⁻¹. With C16U G37U A42G the “self-cleavage kobs at 2500 uM GlcN6P” value was under 1e-05 s⁻¹. For A53G C67G C68U, the “self-cleavage kobs at 2500 uM GlcN6P” value was 7.23e-05 ± 2.2e-05 s⁻¹. In the case of A33C G37C U55C, the “self-cleavage kobs at 2500 uM GlcN6P” value is reported as under 1e-05 s⁻¹. With C8U G9U G13A G37A G41A the “self-cleavage kobs at 2500 uM GlcN6P” value was under 1e-05 s⁻¹. G40A U47C C58U was tested, and the “self-cleavage kobs at 2500 uM GlcN6P” value was under 1e-05 s⁻¹. G41U A53U G60U C61A G66U was tested, and the “self-cleavage kobs at 2500 uM GlcN6P” value was under 1e-05 s⁻¹. For A15C A33C C61U G66A, the “self-cleavage kobs at 2500 uM GlcN6P” value was under 1e-05 s⁻¹. A14U G32U G44C G62U C71A was tested, and the “self-cleavage kobs at 2500 uM GlcN6P” value was under 1e-05 s⁻¹. For A15C A23C, the “self-cleavage kobs at 2500 uM GlcN6P” value was 0.00398 ± 0.0014 s⁻¹. For A12U U30G U49C, the “self-cleavage kobs at 2500 uM GlcN6P” value was under 1e-05 s⁻¹. For G29A U31A G38C, the “self-cleavage kobs at 2500 uM GlcN6P” value was under 1e-05 s⁻¹. For G51U U55C G62A G66C C67U, the “self-cleavage kobs at 2500 uM GlcN6P” value was under 1e-05 s⁻¹. For A6G G40C A42U, the “self-cleavage kobs at 2500 uM GlcN6P” value was under 1e-05 s⁻¹. With A6C G40A U46G G51U the “self-cleavage kobs at 2500 uM GlcN6P” value was under 1e-05 s⁻¹. In the case of G40C G66C, the “self-cleavage kobs at 2500 uM GlcN6P” value is reported as 0.000833 ± 0.00021 s⁻¹. C16G U30C G32C C58G was tested, and the “self-cleavage kobs at 2500 uM GlcN6P” value was 5.09e-05 ± 2.2e-05 s⁻¹. With C10G G41A C58G the “self-cleavage kobs at 2500 uM GlcN6P” value was under 1e-05 s⁻¹. For U31G C68U C71U, the “self-cleavage kobs at 2500 uM GlcN6P” value was 7.95e-05 ± 3.1e-05 s⁻¹. For A15U U31G G40A, the “self-cleavage kobs at 2500 uM GlcN6P” value was 0.000101 ± 2.5e-05 s⁻¹. In the case of C16G G40U G41U, the “self-cleavage kobs at 2500 uM GlcN6P” value is reported as under 1e-05 s⁻¹. A6G A36C U54G G62U was tested, and the “self-cleavage kobs at 2500 uM GlcN6P” value was under 1e-05 s⁻¹. In the case of G7C U30G G32U A64G, the “self-cleavage kobs at 2500 uM GlcN6P” value is reported as under 1e-05 s⁻¹. In the case of A12G G38U C67G C68A, the “self-cleavage kobs at 2500 uM GlcN6P” value is reported as 9.28e-05 ± 2.6e-05 s⁻¹. In the case of A33U G51U C67U, the “self-cleavage kobs at 2500 uM GlcN6P” value is reported as under 1e-05 s⁻¹. For A15G C34A G63A, the “self-cleavage kobs at 2500 uM GlcN6P” value was under 1e-05 s⁻¹. With G9C U49A G51A C70U C71A the “self-cleavage kobs at 2500 uM GlcN6P” value was under 1e-05 s⁻¹. A12G A36C C70U was tested, and the “self-cleavage kobs at 2500 uM GlcN6P” value was under 1e-05 s⁻¹. G29U A36G A42G G43C G62U U65C U69C was tested, and the “self-cleavage kobs at 2500 uM GlcN6P” value was under 1e-05 s⁻¹. For A36G C50G C67G, the “self-cleavage kobs at 2500 uM GlcN6P” value was 0.000124 ± 5.6e-05 s⁻¹. G13U A14G U47C was tested, and the “self-cleavage kobs at 2500 uM GlcN6P” value was 8e-05 ± 2.7e-05 s⁻¹. For A14C U30G A52G, the “self-cleavage kobs at 2500 uM GlcN6P” value was 4.27e-05 ± 2.1e-05 s⁻¹. For C11G G13A G41A A52U A53C G63C C68G, the “self-cleavage kobs at 2500 uM GlcN6P” value was under 1e-05 s⁻¹. For A39C U57A C67G, the “self-cleavage kobs at 2500 uM GlcN6P” value was under 1e-05 s⁻¹. For A15C A64G C68A, the “self-cleavage kobs at 2500 uM GlcN6P” value was under 1e-05 s⁻¹. In the case of A52G G62A G63U U69G, the “self-cleavage kobs at 2500 uM GlcN6P” value is reported as 0.000139 ± 4.7e-05 s⁻¹. C8A G41A G44U was tested, and the “self-cleavage kobs at 2500 uM GlcN6P” value was under 1e-05 s⁻¹. In the case of G29C A42U U47A, the “self-cleavage kobs at 2500 uM GlcN6P” value is reported as under 1e-05 s⁻¹. For U31C G38A U47G G51C, the “self-cleavage kobs at 2500 uM GlcN6P” value was under 1e-05 s⁻¹. For A39G U55C A64G, the “self-cleavage kobs at 2500 uM GlcN6P” value was 0.00694 ± 0.0013 s⁻¹. With C16A G37C U55C the “self-cleavage kobs at 2500 uM GlcN6P” value was under 1e-05 s⁻¹. For C11U A15C A48G U55A, the “self-cleavage kobs at 2500 uM GlcN6P” value was under 1e-05 s⁻¹. In the case of A6C A15G U30C, the “self-cleavage kobs at 2500 uM GlcN6P” value is reported as 2.76e-05 ± 1.3e-05 s⁻¹. With A6C A15U G35A G40U the “self-cleavage kobs at 2500 uM GlcN6P” value was under 1e-05 s⁻¹. For G43U U49G C61G, the “self-cleavage kobs at 2500 uM GlcN6P” value was under 1e-05 s⁻¹. With A12U A33G G38U G44U G59A the “self-cleavage kobs at 2500 uM GlcN6P” value was under 1e-05 s⁻¹. For C34U G51U A64C, the “self-cleavage kobs at 2500 uM GlcN6P” value was under 1e-05 s⁻¹. U30C G37C G38C was tested, and the “self-cleavage kobs at 2500 uM GlcN6P” value was under 1e-05 s⁻¹. In the case of G29C A64G G66U, the “self-cleavage kobs at 2500 uM GlcN6P” value is reported as 4.43e-05 ± 1.8e-05 s⁻¹. In the case of U30G G38A U46G, the “self-cleavage kobs at 2500 uM GlcN6P” value is reported as under 1e-05 s⁻¹. With G13U G38U C68U the “self-cleavage kobs at 2500 uM GlcN6P” value was under 1e-05 s⁻¹. In the case of G7U C8G U49A, the “self-cleavage kobs at 2500 uM GlcN6P” value is reported as under 1e-05 s⁻¹. In the case of A36G U49G U55G, the “self-cleavage kobs at 2500 uM GlcN6P” value is reported as under 1e-05 s⁻¹. With U47G C58A G59U C70G the “self-cleavage kobs at 2500 uM GlcN6P” value was 0.000334 ± 9.7e-05 s⁻¹. In the case of C8A G13U U56G A64G, the “self-cleavage kobs at 2500 uM GlcN6P” value is reported as under 1e-05 s⁻¹. In the case of G32C A36G U47C, the “self-cleavage kobs at 2500 uM GlcN6P” value is reported as under 1e-05 s⁻¹. For A15G U56G C58U, the “self-cleavage kobs at 2500 uM GlcN6P” value was 3.75e-05 ± 1.4e-05 s⁻¹. In the case of G51A A53C G62C, the “self-cleavage kobs at 2500 uM GlcN6P” value is reported as under 1e-05 s⁻¹. G32U C34U A42G U46C A64C was tested, and the “self-cleavage kobs at 2500 uM GlcN6P” value was under 1e-05 s⁻¹. G13U A48C C61A was tested, and the “self-cleavage kobs at 2500 uM GlcN6P” value was under 1e-05 s⁻¹. A12U G29U U30A U31A was tested, and the “self-cleavage kobs at 2500 uM GlcN6P” value was 0.000126 ± 4.8e-05 s⁻¹. In the case of G38U U57A G60C G66U, the “self-cleavage kobs at 2500 uM GlcN6P” value is reported as under 1e-05 s⁻¹.

Variants of: B1
Test: self-cleavage kobs at 10000 uM GlcN6P; higher = faster cleavage; RNA array
Conditions: with glucosamine-6-phosphate
In short: as §1
In the case of C8G A14U A39G, the “self-cleavage kobs at 10000 uM GlcN6P” value is reported as under 1e-05 s⁻¹. A15C A23C was tested, and the “self-cleavage kobs at 10000 uM GlcN6P” value was 0.00556 ± 0.0014 s⁻¹. With G40C G66C the “self-cleavage kobs at 10000 uM GlcN6P” value was 0.000531 ± 6.3e-05 s⁻¹. In the case of G13U A14G U47C, the “self-cleavage kobs at 10000 uM GlcN6P” value is reported as 0.000208 ± 5.4e-05 s⁻¹. For U30C G37C G38C, the “self-cleavage kobs at 10000 uM GlcN6P” value was under 1e-05 s⁻¹. A12U G29U U30A U31A was tested, and the “self-cleavage kobs at 10000 uM GlcN6P” value was 0.000361 ± 0.00013 s⁻¹.
